# Experiments:
# [1] = target: total gliadin fraction (Triticum aestivum); experiment: turbidimetry; optical density at 540 nm after 30 min of mixing at room temperature; gliadins constant at 1 mg/mL, PINA 0 to 0.1 mg/mL; 20 mM malate pH 5, with or without 0.1 M NaCl; Hill ligand-binding model
# [2] = target: α-gliadin (Triticum aestivum); experiment: SPR; α-gliadin, γ-gliadin or (PQQPY)8 covalently bound to a CM5 chip (EDC/NHS, 10 mM acetate pH 4.7); PINA flowed over at 10 μL/min, 25°C, 10 mM Hepes pH 7.4, 150 mM NaCl, 3.4 mM EDTA, 0.005% P20; global kinetic fit, 1:1 Langmuir model
# [3] = target: γ-gliadin (Triticum aestivum) (UniProt P08453); experiment: as above
# [4] = target: total gliadin fraction (Triticum aestivum); experiment: turbidimetry; optical density at 540 nm after 30 min of mixing at room temperature; gliadins constant at 1 mg/mL, PINA 0 to 0.1 mg/mL; 20 mM Tris-HCl pH 7.2, with or without 0.1 M NaCl; Hill ligand-binding model
# [5] = target: total gliadin fraction (Triticum aestivum); experiment: turbidimetry; optical density at 540 nm after 30 min of mixing at room temperature; gliadins constant at 1 mg/mL, PINA 0 to 0.1 mg/mL; 20 mM citrate pH 5, with or without 0.1 M NaCl; Hill ligand-binding model
# γ-gliadin (Triticum aestivum), sequence (P08453 20-327): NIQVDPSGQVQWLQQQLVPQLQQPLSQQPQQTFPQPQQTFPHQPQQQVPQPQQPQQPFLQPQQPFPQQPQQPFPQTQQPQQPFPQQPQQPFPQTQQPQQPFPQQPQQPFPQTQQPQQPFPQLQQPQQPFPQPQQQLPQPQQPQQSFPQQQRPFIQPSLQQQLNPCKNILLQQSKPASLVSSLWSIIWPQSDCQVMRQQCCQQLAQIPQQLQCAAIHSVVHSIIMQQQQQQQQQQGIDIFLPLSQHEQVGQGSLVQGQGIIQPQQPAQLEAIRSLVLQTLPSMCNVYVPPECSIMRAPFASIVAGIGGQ
binder,measurement,setting,value
puroindoline A (natural protein) DVAGGGGAQQCPVETKLNSCRNYLLDRCSTMKDFPVTWRWWKWWKGGCQELLGECCSRLGQMPPQCRCNIIQGSIQGDLGGIFGFQRDRASKVIQEAKNLPPRCNQGPPCNIPGTIGYYW,Kd,[1],400 nM
same,Kd,[2],4450 nM
same,koff,[2],0.00255 s⁻¹
same,kon,[2],450 M⁻¹ s⁻¹
same,response at equilibrium at 2.5 μM PINA,[2],160 RU
same,Kd,[3],630 nM
same,koff,[3],0.00185 s⁻¹
same,kon,[3],3600 M⁻¹ s⁻¹
same,response at equilibrium at 2.5 μM PINA,[3],34 RU
same,Kd,[4],1000 nM
same,Kd,[5],600 nM

# Source: article PMC7523994
